Values belong to the binder of their own block, whether it stands above or below them.
B11: recombinant human S100A9 (ligand)
chain: MTCKMSQLERNIETIINTFHQYSVKLGHPDTLNQGEFKELVRKDLQNFLKKENKNEKVIEHIMEDLDTNADKQLSFEEFIMLMARLTWASHEKMHEGDEGPGHHHKPGLGEGTP
notes: Concentrations are based on the homodimeric molecular weight; Assays were run with Ca2+ and Zn2+; also called hS100A9; rhS100A9

What was measured:
[1] = molecular target: T1, recombinant human RAGE/Fc chimera (R&D Systems cat. No. 1145-RG) (human, UniProt Q15109 23-344); assay: SPR (Biacore), 200 nM protein over amine-coupled RAGE/Fc, 1 mM CaCl2 and 10 µM ZnCl2
T1 construct: Disulfide-linked homodimer expressed in NS0 cells, glycosylated and amine-coupled to a CM5 chip; also called rhRAGE-Fc; immobilized RAGE; not shown: peptide linker between RAGE and Fc; Fc region of human IgG1
T1 sequence (Q15109 23-344, change not shown): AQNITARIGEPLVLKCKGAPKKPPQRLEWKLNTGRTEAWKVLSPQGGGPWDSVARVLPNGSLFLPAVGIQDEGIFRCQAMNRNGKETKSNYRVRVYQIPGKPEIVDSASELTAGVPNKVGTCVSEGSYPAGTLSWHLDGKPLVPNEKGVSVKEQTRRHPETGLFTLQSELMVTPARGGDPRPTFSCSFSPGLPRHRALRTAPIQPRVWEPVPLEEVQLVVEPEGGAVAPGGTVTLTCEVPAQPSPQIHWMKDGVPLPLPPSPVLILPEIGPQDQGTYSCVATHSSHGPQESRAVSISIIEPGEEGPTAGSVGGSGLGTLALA
Description: (§1) Binding analysis was performed using the “surface plasmon resonance” (SPR) technology with a Biacore 3000™ system. This technology allows analysis of an interaction between proteins and small molecules in a real-time and label-free manner. A protein or low-molecular weight compound is injected over a surface (a CM5 sensor chip) with a covalently coupled ligand and the signal produced, expressed as resonance units (RU), is directly proportional to the number and mass of the molecule interacting with the ligand on the surface. Immobilization, regeneration scouting, surface performance tests and binding studies were conducted basically according to the instructions by the manufacturer. Kinetic evaluation of binding data was carried using the BIAevaluation Software Version 3.2 (Biacore AB). Optimization of conditions for immobilization and binding analysis is carried out for each interaction to be studied.
(§2) Recombinant human RAGE was obtained from R&D Systems (cat. No. 1145-RG) as a fusion protein of the extracellular domain of RAGE, comprising a.a. 1-344, and the Fc region of human IgG₁ via a peptide linker. The chimeric protein was expressed in the mouse myleoma cell line NSO as a disulfide-linked homo-dimeric protein with a calculated molecular mass of 61 kDa. Prior to covalent coupling to the sensor chip, buffer was changed to a standard Biacore buffer (10 mM Hepes, 0.15 M NaCl, pH 7.4, containing 0.005% v/v Surfactant P20; HBS-P) using Fast Protein Desalting Micro-Spin Columns (Pierce). RAGE was diluted in an immobilization buffer shown to give sufficient pre-concentration and then covalently coupled using the “Aim at immobilization level” function in the Biacore Wizard to obtain various coupling densities. Activity of immobilized RAGE was tested by injecting a specific anti-human RAGE monoclonal antibody over the surface.

[2] = molecular target: T1, recombinant human RAGE/Fc chimera (R&D …); assay: SPR (Biacore), 200 nM protein over amine-coupled RAGE/Fc, 1 mM CaCl2 and 10 µM ZnCl2; Req or response at late association, not corrected for mass
Description: as §1, §2

recombinant human S100A9 [3] = molecular target: B11; assay: SPR competition: 100 nM human S100A9 pre-incubated with 0-400 nM 43/8 or 1C10, injected over immobilized 43/8; reference 1C10
Description: Incubated samples were then injected for 3 min at a flow rate of 30 μl/min (1; association phase) followed by injection of sample buffer (2; dissociation phase). Responses were calculated at late association phase.

recombinant human S100A9 [4] = molecular target: B11; assay: SPR competition: 100 nM S100A9 pre-incubated with 12.5-500 nM 43/8, injected over immobilized RAGE-Fc; log-logit plot
Description: (§3) Binding data were transformed to a log-logit plot for calculation of IC₅₀ value.
The assay was performed by coating human RAGE on a standard CM5 chip at high density (3000 RU) using standard amine coupling.

recombinant human S100A9 [5] = molecular target: B11; assay: SPR competition: 100 nM S100A9 pre-incubated with 12.5-500 nM 43/8, injected over immobilized amino-linked Compound A (a small molecule); log-logit plot
Description: The assay was performed by coating amino-linked Compound A on a CM5 chip using standard amine coupling.

recombinant human S100A9 [6] = molecular target: B11; assay: SPR competition: 100 nM S100A9 pre-incubated with 12.5-500 nM 43/8, injected over immobilized TLR4/MD-2; log-logit plot
Description: as §3
The assay was performed by coating human TLR4/MD-2 complex on a CM5 chip at a density of ˜3000 RU using standard amine coupling.

[7] = molecular target: T1, recombinant human RAGE/Fc chimera (R&D …); assay: placeholder

binding result [1]: no binding (tested: 200 nM)
B1: S100A1 (other, human, UniProt P23297 1-94, looked up)
chain: MGSELETAMETLINVFHAHSGKEGDKYKLSKKELKELLQTELSGFLDAQKDVDAVDKVMKELDENGDGEVDFQEYVVLVAALTVACNNFFWENS
notes: also called recombinant human S100A1

binding result [2]: binds
B2: human S100A12 (other, UniProt P80511 2-92, looked up)
chain: TKLEEHLEGIVNIFHQYSVRKGHFDTLSKGELKQLLTKELANTIKNIKDKAVIDEIFQGLDANQDEQVDFQEFISLVAIALKAAHYHTHKE
notes: also called S100Al2

binding result [1]: no binding (tested: 200 nM)
B3: S100B (other, human, UniProt P04271 1-92, looked up)
chain: MSELEKAMVALIDVFHQYSGREGDKHKLKKSELKELINNELSHFLEEIKEQEVVDKVMETLDNDGDGECDFQEFMAFVAMVTTACHEFFEHE
notes: also called S100β; recombinant human S100β

fold higher inhibition of S100A9 binding to immobilized 43/8 than for antibody 1C10 (recombinant human S100A9 [3]): > 10 fold
IC50 (recombinant human S100A9 [4]): 34 nM
IC50 (recombinant human S100A9 [5]): 120 nM
IC50 (recombinant human S100A9 [6]): 27 nM
B4: anti-S100A9 monoclonal antibody 43/8 (antibody, V domains shown)
VH: PELVKSGASVKISCKASGYSFTDYNINWVKQSNGKSLEWIGLINPNYGTTFYNQKFKGKATLTVDQSSSTAYMQLNSLTSEDSAVYYCARETLLLRYFDYWGQGTTLTVSS
VL: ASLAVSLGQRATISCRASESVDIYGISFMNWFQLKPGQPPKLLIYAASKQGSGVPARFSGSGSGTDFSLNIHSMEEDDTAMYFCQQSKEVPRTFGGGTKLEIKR
notes: Mouse monoclonal from an S100A9-null C57BL/6 mouse; also called anti-S100A9 mAb 43/8; mAb 43/8

binding result [2]: binds
B5: murine S100A8/S100A9 complex (other)
chain 1: PSELEKALSNLIDVYHNYSNIQGNHHALYKNDFKKMVTTECPQFVQNINIENLFRELDINSDNAINFEEFLAMVIKVGVASHKDSHKE
chain 2: ANKAPSQMERSITTIIDTFHQYSRKEGHPDTLSKKEFRQMVEAQLATFMKKEKRNEALINDIMEDLDTNQDNQLSFEECMMLMAKLIFACHEKLHENNPRGHGHSHGKGCGK
notes: Heterodimer; also called murine S100A8/A9; murine complex S100A8/A9

binding result [1]: no binding (tested: 200 nM)
B6: murine S100A8 (other, UniProt P27005 2-89, looked up)
chain: PSELEKALSNLIDVYHNYSNIQGNHHALYKNDFKKMVTTECPQFVQNINIENLFRELDINSDNAINFEEFLAMVIKVGVASHKDSHKE
notes: Concentration is based on the homodimeric molecular weight

binding result [1]: no binding (tested: 200 nM)
B7: murine S100A9 (other, UniProt P31725 2-113, looked up)
chain: ANKAPSQMERSITTIIDTFHQYSRKEGHPDTLSKKEFRQMVEAQLATFMKKEKRNEALINDIMEDLDTNQDNQLSFEECMMLMAKLIFACHEKLHENNPRGHGHSHGKGCGK
notes: as for B6

binding result [1]: no binding (tested: 200 nM)
B8: hS100A11 (other, human, UniProt P31949 1-105, looked up)
S100A11: MAKISSPTETERCIESLIAVFQKYAGKDGYNYTLSKTEFLSFMNTELAAFTKNQKDPGVLDRMMKKLDTNSDGQLDFSEFLNLIGGLAMACHDSFLKAVPSQKRT
notes: recombinant; also called recombinant human S100A11 (ProSpec TechnoGene)

binding result [2]: binds
B9: human S100A8/S100A9 complex (other)
chain 1: MLTELEKALNSIIDVYHKYSLIKGNFHAVYRDDLKKLLETECPQYIRKKGADVWFKELDINTDGAVNFQEFLILVIKMGVAAHKKSHEESHKE
chain 2: MTCKMSQLERNIETIINTFHQYSVKLGHPDTLNQGEFKELVRKDLQNFLKKENKNEKVIEHIMEDLDTNADKQLSFEEFIMLMARLTWASHEKMHEGDEGPGHHHKPGLGEGTP
notes: Heterodimer; also called S100A8/A9; S100A8/9

binding result [1]: no binding (tested: 200 nM)
B10: human S100A8 (other, UniProt P05109 1-93, looked up)
chain: MLTELEKALNSIIDVYHKYSLIKGNFHAVYRDDLKKLLETECPQYIRKKGADVWFKELDINTDGAVNFQEFLILVIKMGVAAHKKSHEESHKE
notes: The source is 'produced recombinantly ... or obtained from elsewhere'

Binder: B11
fold higher binding than the next group of RAGE binders (AnxII, S100A12, S100A8/9) [7]: 10 fold

Source: patent US20100166775A1 (ACTIVE BIOTECH, published 2010)
